Here are results for 2 substances from paper PMC9715718.

The target of test [1] is RhlR-ATTO488 (Pseudomonas aeruginosa) (UniProt P54292). The experiment in a line: MST; PqsE diluted 1:1 from 10 µM, RhlR-ATTO488 at 20 nM; 50 mM Tris pH 8.0, 300 mM NaCl, 5% glycerol, 50 µM mBTL, 0.05% Tween; 25 °C.
Test [2] deals with PqsE (purified, affinity tag removed) (Pseudomonas aeruginosa) (UniProt P20581). As to the kind of experiment: SEC-MALS; Superdex 200 Increase column in SEC buffer, 40-150 µg of protein applied.

In test [1], “PqsE (purified, affinity tag removed) (from UniProt P20581) (enzyme)” yielded a Kd of 0.146 µM.

Turning to “RhlR (untagged, co-expressed with His6-PqsE) (from UniProt P54292) (natural protein)”, in test [2], the stoichiometry N (RhlR per PqsE (2:2 complex)) turned out to be 1.
